These results are taken from patent US20250034594A1, “RNA-GUIDED GENOME RECOMBINEERING AT KILOBASE SCALE” (THE BOARD OF TRUSTEES OF THE LELAND STANFORD JUNIOR …, priority 2021, published 2025).

The test system of data set [1] is endogenous genome targets (ACTB, HSP90AA1). Briefly: Arrayed SSAP library screening, mKate knock-in assay (editing efficiency). In kind it is cell-based. To be noted: average of HSP90 and ACTB, 3 days after transfection; for Editing Efficiency (Normalized, Average, two targets): fold over negative control (Flag_HA); for Editing Efficiency (Absolute, Average, two targets): percent of mKate knock-in. How it is done: Arrayed SSAP library screening on endogenous genome targets (ACTB. HSP90AA1) using mKate knock-in assay.
SSAP-encoding plasmids were purified and quantified.
(§1) Each SSAP encoding plasmid was tested in duplicate, including a negative control (same plasmid encoding Flag_HA which is not expected to promote gene editing). Transfections were in 96-well plates and transfection efficiency was estimated to be 50%.
(§2) Three days after transfection, mKate positive cells and cell viability were quantified across all replicates, along with positive (original RecT SSAP) and negative (Flag-HA control protein) controls. […] At the same time, the cell viability was measured by live cell counts via flow cytometry, to help quantify the fitness effect of SSAP on mammalian cells.
(§3) SSAP proteins are identified by Uniparc deposit number and SEQ ID NO. Alignment numbers correspond to SSAPs in FIGS. 58, 59, and 60.

For the next data set, the system named is mammalian cells. The data set is described as follows: Arrayed SSAP library screening, cell viability by live cell counts via flow cytometry. The class given is cell-based. How it is done:
as §1, §2, §3

B1: SSAP_152: SEQ ID NO: 321; Clostridiaceae bacterium (protein, listed as Clostridiaceae bacterium)
chain: SNLKKALKTNETKGNSVTVSKAYAMKQLMIKMKGEITSALPTNLSSERFEKVALTAFNSNPKLQKCDPRTFIAAMMQSAQLGLEPNTALGLAYLIPYEVKGINKVQFQIGYKGLLELANRSGKLKTLYAHEVRENDEFDIDYGLEQKLIHKPLLKGNRGNVIGYYAVYHLEPSGYNFVFMTYDEVLEHGKKYSKSFEGGVWEKEFDSMAKKTVIKKLLKYAPLSIEMQKAIVFDESVKGSIDSDMLLVDKEDESIEGSELN
On to B1, for which, in data set [1], the “Editing Efficiency (Normalized, Average, two targets)” value is listed as 6.574 and the “Editing Efficiency (Absolute, Average, two targets)” value is 16.25. Moreover, the “Cell Viability (Average, two targets)” value in the data set on mammalian cells is given as 1.159.

B2: SSAP_67: SEQ ID NO: 236 (protein)
chain: TSQQLDTTHTINQQVTTFRHTLVQMKNEIAAALPAHMTGDRFLRLILTEVRKNPELAECSTESIFGGILTAAALGLEPGLNGECWLIPRKVGKGPGSRKEATFQVGYKGIIKLFWQNPLASYLDTGVVYANDAWKFRKGLDPILEHTPATGDRGAVRGYYAVVGLTTGARIFDFFTPKQISALRGTAGPNGGISDPEHWMERKTALLQVMKMAPKSTDLASAASVDGTVQTVEAAAQVAAASTGPVNPTTGEVLEAEPVEGGAA
As to B2, in data set [1], the “Editing Efficiency (Normalized, Average, two targets)” value is given as 4.616 and the “Editing Efficiency (Absolute, Average, two targets)” value came out at 11.4625. In the data set with mammalian cells, the “Cell Viability (Average, two targets)” value amounted to 1.088.

B3: SSAP_29: SEQ ID NO: 198 (protein)
chain: STALATLAGKLAERVGMDSVDPQELITTLRQTAFKGDASDAQFIALLIVANQYGLNPWTKEIYAFPDKQNGIVPVVGVDGWSRIINENQQFDGMDFEQDDESCTCRIYRKDRNHPICVTEWMDECRRAPFKTREGREITGPWQSHPKRMLRHKAMIQCARLAFGFAGIYDKDEAERIVENTAYTTERQPERDITPVNEETMSEINALLTSMEKTWDDDLLPLCSQIFRRYIRASSELSQAEAEKVLGFLKQKATEQKVAA
In the case of B3, in data set [1], the “Editing Efficiency (Normalized, Average, two targets)” value is on record as 5.204 and the “Editing Efficiency (Absolute, Average, two targets)” value worked out at 12.9225. In the data set on mammalian cells, the “Cell Viability (Average, two targets)” value worked out at 1.131.

B4: SSAP_173: SEQ ID NO: 342; Tyzzerella nexilis (protein, listed as Tyzzerella nexilis)
chain: AGVKEELAKKAESTKGETKLTKSMSIADLIKAMEPEIKKALPEVITPERFTRMALSALNTTPKLRECTQMSFLAALMNAAQLGLEPNTPLGQAYLIPYNNKGVMECQFQIGYKGLIDLSYRNPQMQIISAQAVYENDDFSYELGLNPKLEHCPTLGERGEVRLFYGFFKLVNGGFGFEVMSKTAMDEYAKEYSKAFDSSFSPWKSNYIGMAKKTVIKQALKYAPLKTDFRKALSNDETIKTELSDDMSDIHGEEIWDVEYQEKTA
Consider B4, for which, in data set [1], the “Editing Efficiency (Normalized, Average, two targets)” value stood at 4.674 and the “Editing Efficiency (Absolute, Average, two targets)” value came to 11.55. The “Cell Viability (Average, two targets)” value with mammalian cells is listed as 0.8787.

B5: SSAP_10: SEQ ID NO: 179; Bet Escherichia coli (protein, listed as Escherichia coli)
chain: STALATLAGKLAERVGMDSVDPQELITTLRQTAFKGDASDAQFIALLIVANQYGLNPWTKEIYAFPDKQNGIVPVVGVDGWSRIINENQQFDGMDFEQDNESCTCRIYRKDRNHPICVTEWMDECRREPFKTREGREITGPWQSHPKRMLRHKAMIQCARLAFGFAGIYDKDEAERIVENTAYTAERQPERDITPVNNETMQEINTLLIALDKTWDDDLLPLCSQIFRRDIRASSELTQAEAVKALGFLKQKATEQKVAA
With B5, in data set [1], the “Editing Efficiency (Normalized, Average, two targets)” value is listed as 5.75 and the “Editing Efficiency (Absolute, Average, two targets)” value is listed as 14.25. The “Cell Viability (Average, two targets)” value in the data set with mammalian cells was determined as 1.237.
